Target: the molecule itself
Assay: non-reducing SDS-PAGE and western blot; culture supernatants of HEK293T cells transfected with a p19 expression vector, western blot under non-reducing conditions

B1: mouse IL-23 p19 from HEK293T cells transfected with a p19 expression vector (vector not named) (natural protein, UniProt Q9EQ14 22-196, looked up)
chain: VPRSSSPDWAQCQQLSRNLCMLAWNAHAPAGHMNLLREEEDEETKNNVPRIQCEDGCDPQGLKDNSQFCLQRIRQGLAFYKHLLDSDIFKGEPALLPDSPMEQLHTSLLGLSQLLQPEDHPRETQQMPSLSSSQQWQRPLLRSKILRSLQAFLAIAARVFAHGAATLTEPLVPTA
notes: Interleukin-23 subunit alpha (p19), mouse; source: HEK293T, transfected, in culture supernatant
B1 was tested, and the “stoichiometry N” value was 2.
